Assay results taken from publication PMC3172300, “Modulation of Catalytic Activity in Multi-Domain Protein Tyrosine Phosphatases” (PLoS ONE, 2011).
Numbering of substitutions follows the chain as printed. Like-named read-outs stand apart in the source and are kept apart here.

B1: PTP99A D1 D2 (Drosophila melanogaster) (protein)
chain: DEIRAAVPVNEFAKHVASLHADGDIGFSREYEAIQNECISDDLPCEHSQHPENKRKNRYLNITAYDHSRVHLHPTPGQKKNLDYINANFIDGYQKGHAFIGTQGPLPDTFDCFWRMIWEQRVAIIVMITNLVERGRRKCDMYWPKDGVETYGVIQVKLIEEEVMSTYTVRTLQIKHLKLKKKKQCNTEKLVYQYHYTNWPDHGTPDHPLPVLNFVKKSSAANPAEAGPIVVHCSAGVGRTGTYIVLDAMLKQIQQKNIVNVFGFLRHIRAQRNFLVQTEEQYIFLHDALVEAIASGETNLMAEQVEELKNCTPYLEQQYKNIIQFQPKDIHIASAMKQVNSIKNRGAIFPIEGSRVHLTPKPGEDGSDYINASWLHGFRRLRDFIVTQHPMAHTIKDFWQMVWDHNAQTVVLLSSLDDINFAQFWPDEATPIESDHYRVKFLNKTNKSDYVSRDFVIQSIQDDYELTVKMLHCPSWPEMSNPNSIYDFIVDVHERCNDYRNGPIVIVDRYGGAQACTFCAISSLAIEMEYCSTANVYQYAKLYHNKRPGVWTSSEDIRVIYNILSFLPGNLNLLKRTALRTEFEDVTTATPDLYSKICSNG
B2: PTP99A D1 (Drosophila melanogaster) (protein)
chain: DEIRAAVPVNEFAKHVASLHADGDIGFSREYEAIQNECISDDLPCEHSQHPENKRKNRYLNITAYDHSRVHLHPTPGQKKNLDYINANFIDGYQKGHAFIGTQGPLPDTFDCFWRMIWEQRVAIIVMITNLVERGRRKCDMYWPKDGVETYGVIQVKLIEEEVMSTYTVRTLQIKHLKLKKKKQCNTEKLVYQYHYTNWPDHGTPDHPLPVLNFVKKSSAANPAEAGPIVVHCSAGVGRTGTYIVLDAMLKQIQQKNIVNVFGFLRHIRAQRNFLVQTEEQYIFLHDALVEAIASGETNLMAEQVEE

Experiments:
[1] = target: T1, DLAR D1 D2HSS (Drosophila melanogaster, UniProt P16621, C1961S); type: biochemical; settings: 0.01 µM protein, 25 mM citrate pH 6.0, 15 min at 25°C, malachite green
T1 construct: DLAR 1448-2029; His tag (pET-15b or pET-22b); made in house; host or cells: E. coli BL21(DE3)
T1 sequence (P16621 1448-2029 C1961S): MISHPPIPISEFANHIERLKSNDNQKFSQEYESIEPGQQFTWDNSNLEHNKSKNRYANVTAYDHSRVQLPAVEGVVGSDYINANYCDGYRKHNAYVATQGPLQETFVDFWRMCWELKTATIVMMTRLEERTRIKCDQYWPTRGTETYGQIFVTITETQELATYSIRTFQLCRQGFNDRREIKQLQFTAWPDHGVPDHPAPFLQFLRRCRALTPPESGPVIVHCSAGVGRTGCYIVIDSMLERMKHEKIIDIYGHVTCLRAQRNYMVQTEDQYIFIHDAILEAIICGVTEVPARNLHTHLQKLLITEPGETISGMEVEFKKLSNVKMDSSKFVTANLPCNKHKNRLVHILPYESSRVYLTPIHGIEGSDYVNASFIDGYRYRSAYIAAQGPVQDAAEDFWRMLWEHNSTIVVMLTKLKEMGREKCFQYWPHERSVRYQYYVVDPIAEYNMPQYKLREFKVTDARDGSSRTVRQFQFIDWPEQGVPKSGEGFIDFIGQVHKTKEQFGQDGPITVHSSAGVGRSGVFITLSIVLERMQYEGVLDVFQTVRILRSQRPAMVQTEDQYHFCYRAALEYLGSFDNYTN
Description: (§1) Substrates of PTPs characterized thus far include the activation loop segments of various kinases and regulatory loops of other signaling proteins. Suitably designed peptide substrates mimic the physiologically relevant substrates of PTPs. In the present study, peptide substrates were designed for DLAR for which more information was available on its interacting partners. […] The five peptides were chosen based on their distinct charge distributions around the central phosphotyrosine residue. The phosphorylated as well as non-phosphorylated peptides were obtained from GL Bioscience, China. The peptides were >95% pure and were used after a single round of desalting using a Sephadex G25 column (GE Healthcare). The concentration of the peptide samples for biochemical studies was ascertained by UV absorption at 268 nm for the pY residue.
(§2) Phosphatase activity of the recombinant PTP domains was determined by using para-Nitrophenylphosphate (pNPP), a small molecule generic substrate, as well as phosphotyrosine containing peptides. The pNPP assay was performed as reported previously, with a modification in the buffer composition (25 mM Citrate, Glycine and HEPES (CGH), pH 6.5, 100 mM NaCl and 2 mM DTT). Phosphatase activity with the phosphotyrosine peptides was ascertained by the malachite green reaction as described for PTPs previously. Briefly, the reaction mixture comprised of 0.01 µM protein incubated with increasing concentrations of different peptides in 25 mM citrate buffer pH 6.0, 100 mM NaCl and 2 mM DTT for 15 min at 25°C. The reaction was stopped by the addition of the Biomol Green reagent (Enzo Life Sciences) and the colour developed after 20 min was quantified at 650 nm. For all the assays, kinetic constants for the steady state catalysis were obtained by fitting the reaction curves to the Michaelis-Menten equation using the nonlinear regression module of Sigma plot software (Systat Software, Inc.).

[2] = target: T2, DLAR D1HSS D2 (Drosophila melanogaster, UniProt P16621, C1670S); assay: Surface Plasmon Resonance peptide binding, DLAR D1HSS D2; settings: two-site model, read-out: ka
T2 construct: DLAR 1448-2029; His tag (pET-15b or pET-22b); made in house; host or cells: E. coli BL21(DE3)
T2 sequence (P16621 1448-2029 C1670S): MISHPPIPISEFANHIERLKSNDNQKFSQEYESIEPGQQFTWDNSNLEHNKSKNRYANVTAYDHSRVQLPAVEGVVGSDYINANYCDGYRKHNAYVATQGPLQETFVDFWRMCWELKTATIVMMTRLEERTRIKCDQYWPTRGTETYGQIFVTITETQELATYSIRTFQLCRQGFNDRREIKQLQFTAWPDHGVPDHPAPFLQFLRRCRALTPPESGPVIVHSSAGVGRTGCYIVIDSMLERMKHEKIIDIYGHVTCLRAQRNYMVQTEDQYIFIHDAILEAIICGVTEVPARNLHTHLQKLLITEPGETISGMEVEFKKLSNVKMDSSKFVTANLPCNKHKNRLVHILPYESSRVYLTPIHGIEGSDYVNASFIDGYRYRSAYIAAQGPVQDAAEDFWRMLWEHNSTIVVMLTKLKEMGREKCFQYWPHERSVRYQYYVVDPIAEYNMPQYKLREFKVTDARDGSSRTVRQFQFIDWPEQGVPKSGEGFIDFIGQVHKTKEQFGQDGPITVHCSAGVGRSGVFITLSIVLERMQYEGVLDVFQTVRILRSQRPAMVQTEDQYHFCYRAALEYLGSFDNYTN
Experimental: (§3) The binding of phosphotyrosine peptides to the PTP domains was studied by Surface Plasmon Resonance on a Biacore-2000 instrument (BIAcore, AB). All experiments were conducted at 25°C. DLAR PTP domains were immobilized onto carboxylated dextran CM5 chips (BIAcore AB) using the standard amine coupling procedure as recommended by the manufacturer. Binding and kinetic assays were performed in 10 mM HEPES, pH 8.0, 150 mM NaCl, 10 mM DTT and 3 mM EDTA at a flow rate of 5 µL/min. The peptides were used at concentrations ranging from 50–700 µM. Dissociation was initiated by replacing the analyte with buffer. The association and dissociation curves were monitored for 600 sec. Sensograms were analyzed with BIA-evaluation software version 2 (BIAcore AB). Sensograms for DLAR D1D2, DLAR D1HSSD2 and DLAR D1D2HSS were fitted to two-site binding equations. DLAR D1 and DLAR D2 sensograms were fitted using a single-site binding model.

[3] = target: T3, DLAR D1D2 (Drosophila melanogaster, UniProt P16621); assay: Surface Plasmon Resonance peptide binding, DLAR D1D2; settings: two-site model; for kon: read-out: ka
T3 construct: DLAR 1448-2029; His tag (pET-15b or pET-22b); made in house; host or cells: E. coli BL21(DE3)
T3 sequence (P16621 1448-2029): T2 sequence (P16621 1448-2029 C1670S) with S223C
Experimental: as §3

[4] = target: T4, DLAR D1 (Drosophila melanogaster, UniProt P16621); assay: Dephosphorylation of phosphotyrosine peptides (malachite green), DLAR D1; type: biochemical; settings: 0.01 µM protein, 25 mM citrate pH 6.0, 15 min at 25°C, malachite green
T4 construct: DLAR 1448-1746; His tag (pET-15b or pET-22b); made in house; host or cells: E. coli BL21(DE3)
T4 sequence (P16621 1448-1746): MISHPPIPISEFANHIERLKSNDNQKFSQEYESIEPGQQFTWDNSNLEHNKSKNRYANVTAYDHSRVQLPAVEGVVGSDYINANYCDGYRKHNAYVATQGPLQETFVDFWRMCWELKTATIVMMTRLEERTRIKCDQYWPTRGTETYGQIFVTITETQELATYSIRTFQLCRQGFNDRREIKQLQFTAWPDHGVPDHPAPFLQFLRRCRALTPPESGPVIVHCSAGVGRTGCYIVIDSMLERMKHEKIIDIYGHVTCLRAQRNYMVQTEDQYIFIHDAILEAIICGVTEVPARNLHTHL
Description: as §1, §2

[5] = target: T1, DLAR D1 D2HSS; assay: Surface Plasmon Resonance peptide binding, DLAR D1 D2HSS; settings: two-site model, read-out: ka
Experimental: as §3

[6] = target: T3, DLAR D1D2; assay: Dephosphorylation of phosphotyrosine peptides (malachite green), DLAR D1D2; type: biochemical; settings: 0.01 µM protein, 25 mM citrate pH 6.0, 15 min at 25°C, malachite green
Description: as §1, §2

[7] = substrate: CC(C)C[C@H](NC(=O)[C@H](C)NC(=O)CNC(=O)[C@H](Cc1ccc(OP(=O)(O)O)cc1)NC(=O)[C@H](CC(=O)O)NC(=O)[C@@H]1CCCN1C(=O)[C@H](CCC(=O)O)NC(=O)[C@H](C)NC(=O)[C@@H](N)[C@@H](C)O)C(=O)N[C@@H](Cc1ccc(O)cc1)C(=O)N[C@@H](CCC(=O)O)C(=O)O; assay: purified protein, by the assay type; settings: other: 0.01 µM protein, 25 mM citrate pH 6.0, 15 min at 25°C, malachite green
Experimental: (§4) Phosphatase activity with the phosphotyrosine peptides was ascertained by the malachite green reaction as described for PTPs previously [14]. Briefly, the reaction mixture comprised of 0.01 µM protein incubated with increasing concentrations of different peptides in 25 mM citrate buffer pH 6.0, 100 mM NaCl and 2 mM DTT for 15 min at 25°C. The reaction was stopped by the addition of the Biomol Green reagent (Enzo Life Sciences) and the colour developed after 20 min was quantified at 650 nm. For all the assays, kinetic constants for the steady state catalysis were obtained by fitting the reaction curves to the Michaelis-Menten equation using the nonlinear regression module of Sigma plot software (Systat Software, Inc.).

[8] = substrate: CC[C@H](C)[C@H](NC(=O)[C@H](CC(=O)O)NC(=O)[C@H](CCCNC(=N)N)NC(=O)[C@@H](N)[C@@H](C)O)C(=O)N[C@@H](Cc1ccc(OP(=O)(O)O)cc1)C(=O)N[C@@H](CCC(=O)O)C(=O)N[C@H](C(=O)N[C@@H](CC(=O)O)C(=O)N[C@@H](Cc1ccc(O)cc1)C(=O)N[C@@H](Cc1ccc(O)cc1)C(=O)N[C@@H](CCCNC(=N)N)C(=O)N[C@@H](CCCCN)C(=O)O)[C@@H](C)O; assay: purified protein, by the assay type; settings: other: 0.01 µM protein, 25 mM citrate pH 6.0, 15 min at 25°C, malachite green
Experimental: as §4

[9] = pH 8, SPR Biacore-2000, 25°C, 10 mM HEPES pH 8.0, 150 mM NaCl, 10 mM DTT, 3 mM EDTA, peptides 50–700 µM, first binding site
[10] = pH 8, SPR, 25°C, pH 8.0, second binding site

Molecule | Km [1] | kon [2, 9] | kon [2, 10] | Kd ([3]; SPR, 25°C, pH 8.0, first binding site) | kon [3, 9] | kon [3, 10] | Km [4] | kon [5, 9] | kon [5, 10] | Km [6] | Km [7] | Vmax [7] | kcat [7] | kcat/Km [7] | Km [8] | Vmax [8] | kcat [8] | kcat/Km [8]
CC[C@H](C)[C@H](NC(=O)[C@H](CC(=O)O)NC(=O)[C@H](CCCNC(=N)N)NC(=O)[C@@H](N)[C@@H](C)O)C(=O)N[C@@H](Cc1ccc(OP(=O)(O)O)cc1)C(=O)N[C@@H](CCC(=O)O)C(=O)N[C@H](C(=O)N[C@@H](CC(=O)O)C(=O)N[C@@H](Cc1ccc(O)cc1)C(=O)N[C@@H](Cc1ccc(O)cc1)C(=O)N[C@@H](CCCNC(=N)N)C(=O)N[C@@H](CCCCN)C(=O)O)[C@@H](C)O [Insulin Receptor peptide] | 45.3 ± 4.1 µM | 72.6 ± 1.2 M⁻¹ s⁻¹ | 74.5 ± 1.6 M⁻¹ s⁻¹ | 62.2 ± 0.48 µM | 110 ± 2.32 M⁻¹ s⁻¹ | 2860 ± 90000 M⁻¹ s⁻¹ | 59.5 ± 5.6 µM | 137 ± 2.84 M⁻¹ s⁻¹ | 12.3 ± 0.02 M⁻¹ s⁻¹ | 110 ± 7.82 µM | – | – | – | – | – | – | – | –
B1 | – | – | – | – | – | – | – | – | – | – | 112.42 ± 10.14 µM | 17.1 µmol/min/mg | 21.1 ± 0.82 s⁻¹ | 188000 ± 12900 M⁻¹ s⁻¹ | 35.75 ± 2.08 µM | 46 µmol/min/mg | 56.9 ± 1.03 s⁻¹ | 1.638e+06 ± 7400 M⁻¹ s⁻¹
B2 | – | – | – | – | – | – | – | – | – | – | 309.04 ± 33.32 µM | 1.26 µmol/min/mg | 0.84 ± 0.04 s⁻¹ | 2718 ± 15 M⁻¹ s⁻¹ | 1017 ± 161.84 µM | 2.37 µmol/min/mg | 1.58 ± 0.11 s⁻¹ | 1550 ± 22 M⁻¹ s⁻¹
